Assay [1] has as its target Ubp6 UBL UBL (Saccharomyces cerevisiae) (UniProt P43593). Conditions: cited from earlier work.
Assay [2] has as its target T1, Rpn1^391-642 (Saccharomyces cerevisiae, UniProt P38764 391-642).
T1 construct: Used unlabeled, and ^15N-enriched for the titration with Ubp6-UBL; source: E. coli, purified
T1 sequence (looked up): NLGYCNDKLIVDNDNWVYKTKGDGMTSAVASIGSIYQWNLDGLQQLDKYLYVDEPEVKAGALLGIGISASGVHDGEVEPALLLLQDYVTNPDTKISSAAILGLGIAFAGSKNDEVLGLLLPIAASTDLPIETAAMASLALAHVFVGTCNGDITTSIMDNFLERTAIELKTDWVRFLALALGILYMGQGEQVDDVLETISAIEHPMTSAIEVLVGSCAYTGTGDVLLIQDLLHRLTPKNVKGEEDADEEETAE
Nature of the assay: NMR titration; ^1H-^15N spectra, CSPs and ^15N R2 of 150 μM ^15N-UBL or ^15N-^dK48-Ub2 with unlabeled Rpn1^391-642; 50 mM HEPES, 50 mM KCl, 1 mM TCEP, pH 7.6; 21-25 °C. Conditions: both partners purified.

Assay [3] concerns the target T2, full-length Rpn1 (Saccharomyces cerevisiae, UniProt P38764 1-993).
T2 construct: Rpn1, proteasomal subunit, Saccharomyces cerevisiae, UniProt P38764, full length; Unlabeled in the NMR experiments; also called Rpn1^FL; source: E. coli, purified
T2 sequence (looked up): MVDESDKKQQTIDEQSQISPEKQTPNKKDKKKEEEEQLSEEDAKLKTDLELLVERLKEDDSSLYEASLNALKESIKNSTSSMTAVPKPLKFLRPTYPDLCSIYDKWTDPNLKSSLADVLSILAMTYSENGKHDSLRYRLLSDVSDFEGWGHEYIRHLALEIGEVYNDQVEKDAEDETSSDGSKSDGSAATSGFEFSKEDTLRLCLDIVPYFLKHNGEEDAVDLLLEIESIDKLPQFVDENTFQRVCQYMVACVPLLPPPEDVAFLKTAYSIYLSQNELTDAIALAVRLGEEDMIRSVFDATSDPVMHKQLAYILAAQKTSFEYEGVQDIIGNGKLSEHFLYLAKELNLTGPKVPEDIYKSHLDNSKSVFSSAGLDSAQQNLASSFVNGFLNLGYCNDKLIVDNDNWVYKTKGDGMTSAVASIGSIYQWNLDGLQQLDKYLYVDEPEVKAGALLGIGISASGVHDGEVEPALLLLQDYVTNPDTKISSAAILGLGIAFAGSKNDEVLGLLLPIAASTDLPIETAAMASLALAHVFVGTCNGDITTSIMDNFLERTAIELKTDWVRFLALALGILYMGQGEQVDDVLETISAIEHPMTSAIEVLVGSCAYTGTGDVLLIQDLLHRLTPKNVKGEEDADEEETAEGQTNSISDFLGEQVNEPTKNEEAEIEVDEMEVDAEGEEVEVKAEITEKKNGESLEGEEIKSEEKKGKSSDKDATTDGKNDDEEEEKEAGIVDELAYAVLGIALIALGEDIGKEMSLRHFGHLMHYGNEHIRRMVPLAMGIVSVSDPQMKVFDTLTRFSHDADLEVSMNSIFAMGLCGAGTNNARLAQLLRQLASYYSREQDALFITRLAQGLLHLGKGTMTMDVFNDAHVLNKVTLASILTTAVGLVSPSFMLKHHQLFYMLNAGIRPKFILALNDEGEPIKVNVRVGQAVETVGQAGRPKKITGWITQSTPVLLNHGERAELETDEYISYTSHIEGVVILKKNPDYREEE
In words: NMR titration; ^1H-^15N spectra of the ^15N-enriched protein or UBL domain with unlabeled Rpn1^FL (equimolar; excess for Ddi1); signal attenuation; 20 mM sodium phosphate, 150 mM NaCl, 1 mM TCEP, pH 6.8; 21-25 °C. Particulars: both partners purified.

For assay [4], the target named is T3, Rpn1^356-905 (Saccharomyces cerevisiae, UniProt P38764 356-905).
T3 construct: also called PC repeat region construct; source: E. coli, purified
T3 sequence (looked up): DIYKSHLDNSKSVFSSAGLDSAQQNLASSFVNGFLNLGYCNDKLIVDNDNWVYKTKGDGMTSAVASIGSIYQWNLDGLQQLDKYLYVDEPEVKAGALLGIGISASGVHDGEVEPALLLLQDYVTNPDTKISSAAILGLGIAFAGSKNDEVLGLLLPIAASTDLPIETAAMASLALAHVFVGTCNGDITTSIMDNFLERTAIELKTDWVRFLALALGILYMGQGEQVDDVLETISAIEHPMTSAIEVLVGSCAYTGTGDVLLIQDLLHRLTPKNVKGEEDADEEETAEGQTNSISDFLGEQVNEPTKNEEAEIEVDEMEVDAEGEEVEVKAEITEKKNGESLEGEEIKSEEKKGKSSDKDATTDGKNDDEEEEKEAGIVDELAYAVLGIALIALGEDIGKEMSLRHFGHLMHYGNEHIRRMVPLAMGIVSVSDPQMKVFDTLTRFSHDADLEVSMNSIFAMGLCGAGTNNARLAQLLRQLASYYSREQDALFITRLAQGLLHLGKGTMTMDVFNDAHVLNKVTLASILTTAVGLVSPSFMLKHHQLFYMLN
In words: NMR titration; competition: equimolar ^15N-UBL and Rpn1^356-905 with unlabeled competitor added stepwise (molar ratios 1 and 4); 50 mM Tris-Cl, 200 mM KCl, 5% glycerol, 5 mM β-mercaptoethanol, pH 7.4; 21-25 °C. Conditions: both partners purified.

Assay [5] deals with T3, Rpn1^356-905. In words: NMR titration; ^1H-^15N spectra of ^15N-UBL with unlabeled Rpn1^356-905; 50 mM Tris-Cl, 200 mM KCl, 5% glycerol, 5 mM β-mercaptoethanol, pH 7.4; 21-25 °C. Conditions: both partners purified.
Assay [6] addresses T2, full-length Rpn1. In words: NMR titration; competition: 150 μM ^15N-UBL with 1× Rpn10-UIM, then 0.3× Rpn1^FL (48 μM), then 2× or 3× Rpn10-UIM. Conditions: both partners purified.
A further assay deals with T4, Rpn10-UIM (Saccharomyces cerevisiae, UniProt P38886 204-268, Q261Y).
T4 construct: Rpn10, Saccharomyces cerevisiae, UniProt P38886, residues 204-268 with a Q261Y mutation for quantification purposes; also called UIM domain of Rpn10; source: E. coli, purified
T4 sequence (looked up): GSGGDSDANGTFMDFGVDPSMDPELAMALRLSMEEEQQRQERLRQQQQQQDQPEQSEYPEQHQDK
Nature of the assay: NMR titration; ^1H-^15N spectra of 150 μM ^15N-UBL with 1× Rpn10-UIM; signal shifts. Conditions: both partners purified.

Assay [7] deals with T1, Rpn1^391-642. In words: NMR titration; unlabeled Ubp6-UBL titrated into ^15N-Rpn1^391-642 or ^15N-Rpn1^391-642(AKAA); CSPs fitted to a single-site binding model, Kd as a global parameter; 50 mM HEPES, 50 mM KCl, 1 mM TCEP, pH 7.6; 21-25 °C. Particulars: both partners purified.
A further assay concerns the target T5, Rpn1^391-642(AKAA) (Saccharomyces cerevisiae, UniProt P38764 391-642, L430A | D431K | Q434A | Q435A).
T5 construct: ^15N-enriched in the titration; source: E. coli, purified
T5 sequence (looked up): T1 sequence (looked up) with L40A, D41K, Q44A, Q45A
The description is as above. Conditions: both partners purified.

Residue numbers refer to the chain shown, from its start.

Take Rpn1 391-642 (from UniProt P38764): the Kd in assay [1] is 40 µM.

B1: Rad23-UBL (residues 2-77) (domain or fragment, Saccharomyces cerevisiae, UniProt P32628 2-77, looked up)
chain: VSLTFKNFKKEKVPLDLEPSNTILETKTKLAQSISCEESQIKLIYSGKVLQDSKTVSECGLKDGDQVVFMVSQKKS
notes: Rad23, Saccharomyces cerevisiae, UniProt P32628, UBL domain, residues 2-77; also called UBL domain of Rad23; source: E. coli, purified
For B1, the binding result in the assay with Rpn1^391-642 [2], with full-length Rpn1 [3] and with Rpn1^356-905 [4] was “binds” throughout.

B2: Dsk2-UBL (domain or fragment, Saccharomyces cerevisiae)
chain: SLNIHIKSGQDKWEVNVAPESTVLQFKEAINKANGIPVANQRLIYSGKILKDDQTVESYHIQDGHSVHLVKSQPKPLDLQPSLIS
notes: Dsk2, Saccharomyces cerevisiae, UniProt P48510, UBL domain, residues 2-77; also called UBL domain of Dsk2; source: E. coli, purified
For B2, the binding result with Rpn1^356-905 [5], in the assay with Rpn1^391-642 [2], with full-length Rpn1 [6] and in the assay with Rpn10-UIM was “binds” in each case.

B3: Ubp6-UBL (domain or fragment, Saccharomyces cerevisiae, UniProt P43593 2-81, looked up)
chain: SGETFEFNIRHSGKVYPITLSTDATSADLKSKAEELTQVPSARQKYMVKGGLSGEESIKIYPLIKPGSTVMLLGTPDANL
notes: Ubp6, Saccharomyces cerevisiae, UniProt P43593, UBL domain, residues 2-81; Used ^15N-enriched or unlabeled; also called UBL domain of Ubp6; source: E. coli, purified
Take B3: the Kd with Rpn1^391-642 [7] came to 43 ± 22 µM; in the assay with Rpn1^391-642(AKAA), 36 ± 21 µM.

B4: full-length Ubp6 (enzyme, Saccharomyces cerevisiae, UniProt P43593 1-499, looked up)
chain: MSGETFEFNIRHSGKVYPITLSTDATSADLKSKAEELTQVPSARQKYMVKGGLSGEESIKIYPLIKPGSTVMLLGTPDANLISKPAKKNNFIEDLAPEQQVQQFAQLPVGFKNMGNTCYLNATLQALYRVNDLRDMILNYNPSQGVSNSGAQDEEIHKQIVIEMKRCFENLQNKSFKSVLPIVLLNTLRKCYPQFAERDSQGGFYKQQDAEELFTQLFHSMSIVFGDKFSEDFRIQFKTTIKDTANDNDITVKENESDSKLQCHISGTTNFMRNGLLEGLNEKIEKRSDLTGANSIYSVEKKISRLPKFLTVQYVRFFWKRSTNKKSKILRKVVFPFQLDVADMLTPEYAAEKVKVRDELRKVEKEKNEKEREIKRRKFDPSSSENVMTPREQYETQVALNESEKDQWLEEYKKHFPPNLEKGENPSCVYNLIGVITHQGANSESGHYQAFIRDELDENKWYKFNDDKVSVVEKEKIESLAGGGESDSALILMYKGFGL
notes: Ubp6, deubiquitinase with a UBL domain, Saccharomyces cerevisiae, UniProt P43593, full length; source: E. coli, purified
Consider B4, for which the binding result in the assay with full-length Rpn1 [3] is given as “binds”.

B5: Rad23-UBL (residues 1-73) (domain or fragment, Saccharomyces cerevisiae, UniProt P32628 1-73, looked up)
chain: MVSLTFKNFKKEKVPLDLEPSNTILETKTKLAQSISCEESQIKLIYSGKVLQDSKTVSECGLKDGDQVVFMVS
notes: ^15N-enriched; source: E. coli, purified
With B5, in the assay with full-length Rpn1 [6], the binding result is given as “binds”.

B6: full-length Rad23 (natural protein, Saccharomyces cerevisiae, UniProt P32628 1-398, looked up)
chain: MVSLTFKNFKKEKVPLDLEPSNTILETKTKLAQSISCEESQIKLIYSGKVLQDSKTVSECGLKDGDQVVFMVSQKKSTKTKVTEPPIAPESATTPGRENSTEASPSTDASAAPAATAPEGSQPQEEQTATTERTESASTPGFVVGTERNETIERIMEMGYQREEVERALRAAFNNPDRAVEYLLMGIPENLRQPEPQQQTAAAAEQPSTAATTAEQPAEDDLFAQAAQGGNASSGALGTTGGATDAAQGGPPGSIGLTVEDLLSLRQVVSGNPEALAPLLENISARYPQLREHIMANPEVFVSMLLEAVGDNMQDVMEGADDMVEGEDIEVTGEAAAAGLGQGEGEGSFQVDYTPEDDQAISRLCELGFERDLVIQVYFACDKNEEAAANILFSDHAD
notes: Rad23, UBL-UBA shuttle protein, Saccharomyces cerevisiae, UniProt P32628, full length; ^15N-enriched; source: E. coli, purified
As for B6, the binding result with full-length Rpn1 [3] was “binds”.

B7: full-length Dsk2 (natural protein, Saccharomyces cerevisiae, UniProt P48510 1-373, looked up)
chain: MSLNIHIKSGQDKWEVNVAPESTVLQFKEAINKANGIPVANQRLIYSGKILKDDQTVESYHIQDGHSVHLVKSQPKPQTASAAGANNATATGAAAGTGATPNMSSGQSAGFNPLADLTSARYAGYLNMPSADMFGPDGGALNNDSNNQDELLRMMENPIFQSQMNEMLSNPQMLDFMIQSNPQLQAMGPQARQMLQSPMFRQMLTNPDMIRQSMQFARMMDPNAGMGSAGGAASAFPAPGGDAPEEGSNTNTTSSSNTGNNAGTNAGTNAGANTAANPFASLLNPALNPFANAGNAASTGMPAFDPALLASMFQPPVQASQAEDTRPPEERYEHQLRQLNDMGFFDFDRNVAALRRSGGSVQGALDSLLNGDV
notes: Dsk2, UBL-UBA shuttle protein, Saccharomyces cerevisiae, UniProt P48510, full length; ^15N-enriched; source: E. coli, purified
B7: in the assay with full-length Rpn1 [3], the binding result is “binds”.

The Kd is the concentration at which binding is half-saturated.
